From US6866854 (TRUSTEES OF COLUMBIA UNIVERSITY IN THE CITY OF NEW YORK, dated 2005) come the findings set out here.

The target of this assay is T1, LANA2 fused to GAL4-AD (plasmid pGAD424) (Kaposi's sarcoma-associated herpesvirus …, UniProt F5HIC6 1-566).
T1 sequence: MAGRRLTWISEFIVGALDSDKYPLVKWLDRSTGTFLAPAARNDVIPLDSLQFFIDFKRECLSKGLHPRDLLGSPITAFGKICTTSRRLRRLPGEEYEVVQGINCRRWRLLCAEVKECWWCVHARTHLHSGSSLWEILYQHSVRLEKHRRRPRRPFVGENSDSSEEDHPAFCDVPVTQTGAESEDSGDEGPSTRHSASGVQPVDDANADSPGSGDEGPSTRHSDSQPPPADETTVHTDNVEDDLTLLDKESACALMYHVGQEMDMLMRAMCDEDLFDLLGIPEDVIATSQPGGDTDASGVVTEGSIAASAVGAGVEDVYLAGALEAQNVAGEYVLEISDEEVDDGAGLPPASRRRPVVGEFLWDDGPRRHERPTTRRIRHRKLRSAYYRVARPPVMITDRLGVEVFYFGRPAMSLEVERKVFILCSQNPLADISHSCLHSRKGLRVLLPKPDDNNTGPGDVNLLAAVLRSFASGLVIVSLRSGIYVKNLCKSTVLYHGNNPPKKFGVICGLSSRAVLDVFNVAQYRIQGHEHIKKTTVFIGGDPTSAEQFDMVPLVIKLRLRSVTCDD
Nature of the assay: yeast two-hybrid assay, strain Y-190, b-galactosidase.

B1: murine p53 fused to GAL4 DNA-binding domain (DNA-BD/murine p53 fusion protein PVA3) (other)
chain: MKLLSSIEQACDICRLKKLKCSKEKPKCAKCLKNNWECRYSPKTKRSPLTRAHLTEVESRLERLEQLFLLIFPREDLDMILKMDSLQDIKALLTGLFVQDNVNKDAVTDRLASVETDMPLTLRQHRISATSSSEESSNKGQRQLTVSPVTETPGPVAPAPATPWPLSSFVPSQKTYQGNYGFHLGFLQSGTAKSVMCTYSPPLNKLFCQLAKTCPVQLWVSATPPAGSRVRAMAIYKKSQHMTEVVRRCPHHERCSDGDGLAPPQHLIRVEGNLYPEYLEDRQTFRHSVVVPYEPPEAGSEYTTIHYKYMCNSSCMGGMNRRPILTIITLEDSSGNLLGRDSFEVRVCACPGRDRRTEEENFRKKEVLCPELPPGSAKRALPTCTSASPPQKKKPLDGEYFTLKIRGRKRFEMFRELNEALELKDAHATEESGDSRAHSSYLKTKKGQSTSRHKKTMVKKVGPDSD
notes: also called p53 into the Gal4-BD cassette
As to B1, the binding result is reported as “no binding”.
